According to PMC12186490 (2025):

Columns and labels:
[1] = molecular target: T1, fluorescein-labeled synthetic NRPS-inducing peptide (NIP) (Streptococcus salivarius K12, fluorescein label); experiment: FP; pH 5.5
[2] = molecular target: T1, fluorescein-labeled synthetic …; experiment: FP; pH 5.0
[3] = molecular target: T1, fluorescein-labeled synthetic …; experiment: FP; pH 6.5
[4] = molecular target: T1, fluorescein-labeled synthetic …; experiment: FP; pH 5.5; remark: listed apart in the source
[5] = molecular target: T1, fluorescein-labeled synthetic …; experiment: FP; pH 7.5
[6] = molecular target: T1, fluorescein-labeled synthetic …; experiment: FP; pH 7.0
[7] = molecular target: T1, fluorescein-labeled synthetic …; experiment: FP; pH 6.0
[8] = molecular target: T1, fluorescein-labeled synthetic …; experiment: FP; pH 7.5; remark: listed apart in the source

B1: NRPS regulator NrpR (amino acids 1-285), recombinant, untagged (receptor)
chain: GSHMNFGQAIDHLRRQKHFSVKQICGNYLSRQTYYRFVNNEVDISSTKLFYLLNHLNVNVDEFLFICNNFQLEKEFTDMEKIKIYFEKNNIVGLQNLLTSYSSQINVKEKIIYALISSLLGRLTNTSSCTEEKILRDYLINIETWTHYETVLFNNAMFIFDSEFIELIFRKINLNLEKYSTLRYYGNESIRMFINMIILYIDRQDIRRAKEALQIAKNFKINDDCMYEKSCIVFFNEVLNLLNGEISSLKICKSIIKYFNLIGSLSIAAMFESYLDTLIKNNPHITFN
- Kd [1]: 6.1 nM
- Kd [2]: 18 nM
- Kd [3]: 16.2 nM
- Kd [4]: 7.5 nM
- Kd [5]: 20.4 nM
- Kd [6]: 18.4 nM
- Kd [7]: 12.2 nM
- Kd [8]: 26 nM
